Assay [1] addresses Dynamic microtubules, coverslip-anchored (grown from GMPCPP-stabilized seeds with unpolymerized tubulin) (bovine) (UniProt Q6B856). In words: optical trap force clamp (detachment of kinetochore-decorated beads from microtubule tips); low density of kinetochores on anti-His beads (Dsn1:bead ratio 200); coverslip-anchored dynamic microtubules; 5 pN; 3 nM Dam1c and ATP in the buffer; 0.5 μM AurB*-KD flowed in.

The target is the same in assay [2]. In words: optical trap force clamp (detachment of kinetochore-decorated beads from microtubule tips); high density of kinetochores on anti-His beads (Dsn1:bead ratio 3,300); coverslip-anchored dynamic microtubules; ~1 pN; 3 nM Dam1c and ATP in the buffer; 5 μM AurB*-KD flowed in.
The target is the same in assay [3]. In words: optical trap force clamp (detachment of kinetochore-decorated beads from microtubule tips); low density of kinetochores on anti-His beads (Dsn1:bead ratio 200); coverslip-anchored dynamic microtubules; 1.5 pN; 3 nM Dam1c and ATP in the buffer; 0.5 μM AurB*-KD flowed in.
For assay [4] the target is unchanged. Kind of assay: optical trap force clamp (detachment of kinetochore-decorated beads from microtubule tips); low density of kinetochores on anti-His beads (Dsn1:bead ratio 200); coverslip-anchored dynamic microtubules; 5 pN; 3 nM Dam1c and ATP in the buffer; 0.5 μM active AurB* flowed in.
Assay [5] has the same target. In words: optical trap force clamp (detachment of kinetochore-decorated beads from microtubule tips); high density of kinetochores on anti-His beads (Dsn1:bead ratio 3,300); coverslip-anchored dynamic microtubules; ~1 pN; 3 nM Dam1c and ATP in the buffer; 5 μM active AurB* flowed in.
The target is the same in assay [6]. Kind of assay: optical trap force clamp (detachment of kinetochore-decorated beads from microtubule tips); low density of kinetochores on anti-His beads (Dsn1:bead ratio 200); coverslip-anchored dynamic microtubules; 1.5 pN; 3 nM Dam1c and ATP in the buffer; 0.5 μM active AurB* flowed in.
Assay [7] has the same target. Kind of assay: optical trap force clamp (detachment of kinetochore-decorated beads from microtubule tips); high density of kinetochores on anti-His beads (Dsn1:bead ratio 3,300); coverslip-anchored dynamic microtubules; ~1 pN; 3 nM Dam1c and ATP in the buffer; 0.5 μM active AurB* flowed in.
In a further assay the target is tubulin (microtubules). In words: optical trap tip-attachment detachment rate.
[8] abbreviates: reference: 5 µM AurB*-KD flowed in.

The results in this text go back to PMC9021268.

Chain of UniProt Q6B856 (Q6B856 whole entry, looked up): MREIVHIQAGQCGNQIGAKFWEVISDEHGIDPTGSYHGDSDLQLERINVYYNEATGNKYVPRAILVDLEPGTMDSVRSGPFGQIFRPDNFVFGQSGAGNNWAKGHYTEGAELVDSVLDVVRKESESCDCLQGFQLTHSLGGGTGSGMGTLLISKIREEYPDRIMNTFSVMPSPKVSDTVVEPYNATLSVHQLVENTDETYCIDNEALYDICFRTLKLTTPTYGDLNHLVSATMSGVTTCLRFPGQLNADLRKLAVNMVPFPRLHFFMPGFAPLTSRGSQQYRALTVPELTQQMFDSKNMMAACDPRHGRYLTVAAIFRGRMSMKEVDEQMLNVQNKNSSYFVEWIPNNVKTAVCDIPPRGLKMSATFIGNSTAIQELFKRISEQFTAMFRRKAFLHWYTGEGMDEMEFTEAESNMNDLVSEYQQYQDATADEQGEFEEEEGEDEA

For “Mps1-1 kinetochores (native kinetochores purified from budding yeast strain SBY8726) (from UniProt P40568 1-576; P40460 1-691; P53148 1-917) (complex)”, the detachment rate in assay [1] worked out at 7 h⁻¹; in assay [2], 2.3 h⁻¹; in assay [3], 10.4 h⁻¹; in assay [4], 7 h⁻¹; in assay [5] it was 7.2 h⁻¹; in assay [6] it was 28.9 h⁻¹. In assay [7], the detachment rate is 4.6 h⁻¹.
Regarding “Ndc80 (from UniProt P40460) 0.5 µM AurB* flowed in”, the “other: detachment rate” value with tubulin (microtubules) (reference: 0.5 µM AurB*-KD flowed in) was “weaker; reference 10.4 ± 3.3”; with tubulin (microtubules) (setting [8]), “weaker; reference 2.3 ± 0.9”.
For the substance “Ndc80 (from UniProt P40460) 5 µM AurB* flowed in”, the “other: detachment rate” value with tubulin (microtubules) (setting [8]) is recorded as “weaker; reference 2.3 ± 0.9”.
